Legend:
[1] = biological target: vasopressin type 2 receptor (UniProt P30518)
[2] = biological target: chimeric V2R harboring the carboxy-terminal tail of the β2-adrenergic receptor
[3] = biological target: vasopressin type 2 receptor (UniProt P30518); remark: listed apart in the source

mini G protein mGs
AVP-induced maximal efficacy of Rluc-mGs recruitment to early endosomes (EbBRET with rGFP-Rab5), AVP dose-response, 45 min, parental HEK293 cells [1]: 0.18 ΔEbBRET
AVP-induced maximal efficacy of Rluc-mGs recruitment to early endosomes (EbBRET with rGFP-Rab5), AVP dose-response, 45 min, Δβarr1/2 HEK293 cells [1]: 0.074 ΔEbBRET
AVP-induced maximal efficacy of Rluc-mGs recruitment to the plasma membrane (EbBRET with rGFP-CAAX), AVP dose-response, 10 min, parental HEK293 cells [1]: 0.324 ΔEbBRET
AVP-induced maximal efficacy of Rluc-mGs recruitment to the plasma membrane (EbBRET with rGFP-CAAX), AVP dose-response, 10 min, Δβarr1/2 HEK293 cells [1]: 0.376 ΔEbBRET
Potency of AVP (LogEC50) for Rluc-mGs recruitment to early endosomes (EbBRET with rGFP-Rab5), 45 min, parental HEK293 cells [1]: -8.37 LogEC50
Potency of AVP (LogEC50) for Rluc-mGs recruitment to early endosomes (EbBRET with rGFP-Rab5), 45 min, Δβarr1/2 HEK293 cells [1]: -8.34 LogEC50
Potency of AVP (LogEC50) for Rluc-mGs recruitment to the plasma membrane (EbBRET with rGFP-CAAX), 10 min, parental HEK293 cells [1]: -7.9 LogEC50
Potency of AVP (LogEC50) for Rluc-mGs recruitment to the plasma membrane (EbBRET with rGFP-CAAX), 10 min, Δβarr1/2 HEK293 cells [1]: -7.99 LogEC50
AVP-mediated maximal efficacy of Rluc-mGs recruitment to early endosomes (EbBRET with rGFP-Rab5), AVP dose-response, 45 min, cells expressing V2β2AR [2]: 0.15 ΔEbBRET
AVP-mediated maximal efficacy of Rluc-mGs recruitment to the plasma membrane (EbBRET with rGFP-CAAX), AVP dose-response, 10 min, cells expressing V2β2AR [2]: 0.392 ΔEbBRET
Potency of AVP (logEC50) for Rluc-mGs recruitment to early endosomes (EbBRET with rGFP-Rab5), 45 min, cells expressing V2β2AR [2]: -8.34 logEC50
Potency of AVP (logEC50) for Rluc-mGs recruitment to the plasma membrane (EbBRET with rGFP-CAAX), 10 min, cells expressing V2β2AR [2]: -8.07 logEC50
Transduction coefficient log(τ/Ka) of Rluc-mGs recruitment to early endosomes (EbBRET with rGFP-Rab5), cells expressing V2β2AR [2]: 8.31 log(τ/Ka)
Transduction coefficient log(τ/Ka) of Rluc-mGs recruitment to the plasma membrane (EbBRET with rGFP-CAAX), cells expressing V2β2AR [2]: 8.04 log(τ/Ka)
AVP-mediated maximal efficacy of Rluc-mGs recruitment to early endosomes (EbBRET with rGFP-Rab5), AVP dose-response, 45 min, cells expressing V2R [3]: 0.167 ΔEbBRET
AVP-mediated maximal efficacy of Rluc-mGs recruitment to the plasma membrane (EbBRET with rGFP-CAAX), AVP dose-response, 10 min, cells expressing V2R [3]: 0.3 ΔEbBRET
Potency of AVP (logEC50) for Rluc-mGs recruitment to early endosomes (EbBRET with rGFP-Rab5), 45 min, cells expressing V2R [3]: -8.65 logEC50
Potency of AVP (logEC50) for Rluc-mGs recruitment to the plasma membrane (EbBRET with rGFP-CAAX), 10 min, cells expressing V2R [3]: -8.07 logEC50
Transduction coefficient log(τ/Ka) of Rluc-mGs recruitment to early endosomes (EbBRET with rGFP-Rab5), cells expressing V2R [3]: 8.63 log(τ/Ka)
Transduction coefficient log(τ/Ka) of Rluc-mGs recruitment to the plasma membrane (EbBRET with rGFP-CAAX), cells expressing V2R [3]: 7.98 log(τ/Ka)

mini G protein mGsq
AVP-induced maximal efficacy of Rluc-mGsq recruitment to early endosomes (EbBRET with rGFP-Rab5), AVP dose-response, 45 min, parental HEK293 cells [1]: 0.05 ΔEbBRET
AVP-induced maximal efficacy of Rluc-mGsq recruitment to early endosomes (EbBRET with rGFP-Rab5), AVP dose-response, 45 min, Δβarr1/2 HEK293 cells [1]: 0.024 ΔEbBRET
AVP-induced maximal efficacy of Rluc-mGsq recruitment to the plasma membrane (EbBRET with rGFP-CAAX), AVP dose-response, 10 min, parental HEK293 cells [1]: 0.168 ΔEbBRET
AVP-induced maximal efficacy of Rluc-mGsq recruitment to the plasma membrane (EbBRET with rGFP-CAAX), AVP dose-response, 10 min, Δβarr1/2 HEK293 cells [1]: 0.18 ΔEbBRET
Potency of AVP (LogEC50) for Rluc-mGsq recruitment to early endosomes (EbBRET with rGFP-Rab5), 45 min, parental HEK293 cells [1]: -8.38 LogEC50
Potency of AVP (LogEC50) for Rluc-mGsq recruitment to early endosomes (EbBRET with rGFP-Rab5), 45 min, Δβarr1/2 HEK293 cells [1]: -8.32 LogEC50
Potency of AVP (LogEC50) for Rluc-mGsq recruitment to the plasma membrane (EbBRET with rGFP-CAAX), 10 min, parental HEK293 cells [1]: -7.81 LogEC50
Potency of AVP (LogEC50) for Rluc-mGsq recruitment to the plasma membrane (EbBRET with rGFP-CAAX), 10 min, Δβarr1/2 HEK293 cells [1]: -7.95 LogEC50
AVP-mediated maximal efficacy of Rluc-mGsq recruitment to early endosomes (EbBRET with rGFP-Rab5), AVP dose-response, 45 min, cells expressing V2β2AR [2]: 0.061 ΔEbBRET
AVP-mediated maximal efficacy of Rluc-mGsq recruitment to the plasma membrane (EbBRET with rGFP-CAAX), AVP dose-response, 10 min, cells expressing V2β2AR [2]: 0.183 ΔEbBRET
Potency of AVP (logEC50) for Rluc-mGsq recruitment to early endosomes (EbBRET with rGFP-Rab5), 45 min, cells expressing V2β2AR [2]: -7.82 logEC50
Potency of AVP (logEC50) for Rluc-mGsq recruitment to the plasma membrane (EbBRET with rGFP-CAAX), 10 min, cells expressing V2β2AR [2]: -7.97 logEC50
Transduction coefficient log(τ/Ka) of Rluc-mGsq recruitment to early endosomes (EbBRET with rGFP-Rab5), cells expressing V2β2AR [2]: 7.91 log(τ/Ka)
Transduction coefficient log(τ/Ka) of Rluc-mGsq recruitment to the plasma membrane (EbBRET with rGFP-CAAX), cells expressing V2β2AR [2]: 7.99 log(τ/Ka)
AVP-mediated maximal efficacy of Rluc-mGsq recruitment to early endosomes (EbBRET with rGFP-Rab5), AVP dose-response, 45 min, cells expressing V2R [3]: 0.05 ΔEbBRET
AVP-mediated maximal efficacy of Rluc-mGsq recruitment to the plasma membrane (EbBRET with rGFP-CAAX), AVP dose-response, 10 min, cells expressing V2R [3]: 0.161 ΔEbBRET
Potency of AVP (logEC50) for Rluc-mGsq recruitment to early endosomes (EbBRET with rGFP-Rab5), 45 min, cells expressing V2R [3]: -8.44 logEC50
Potency of AVP (logEC50) for Rluc-mGsq recruitment to the plasma membrane (EbBRET with rGFP-CAAX), 10 min, cells expressing V2R [3]: -7.88 logEC50
Transduction coefficient log(τ/Ka) of Rluc-mGsq recruitment to early endosomes (EbBRET with rGFP-Rab5), cells expressing V2R [3]: 8.31 log(τ/Ka)
Transduction coefficient log(τ/Ka) of Rluc-mGsq recruitment to the plasma membrane (EbBRET with rGFP-CAAX), cells expressing V2R [3]: 7.9 log(τ/Ka)
